Test results from patent publication US20240261333A1 (published 2024).

T1: YTHDF2 (human, UniProt Q9Y5A9 2-579)
T1 construct: also called NP_057342.2
T1 sequence (looked up): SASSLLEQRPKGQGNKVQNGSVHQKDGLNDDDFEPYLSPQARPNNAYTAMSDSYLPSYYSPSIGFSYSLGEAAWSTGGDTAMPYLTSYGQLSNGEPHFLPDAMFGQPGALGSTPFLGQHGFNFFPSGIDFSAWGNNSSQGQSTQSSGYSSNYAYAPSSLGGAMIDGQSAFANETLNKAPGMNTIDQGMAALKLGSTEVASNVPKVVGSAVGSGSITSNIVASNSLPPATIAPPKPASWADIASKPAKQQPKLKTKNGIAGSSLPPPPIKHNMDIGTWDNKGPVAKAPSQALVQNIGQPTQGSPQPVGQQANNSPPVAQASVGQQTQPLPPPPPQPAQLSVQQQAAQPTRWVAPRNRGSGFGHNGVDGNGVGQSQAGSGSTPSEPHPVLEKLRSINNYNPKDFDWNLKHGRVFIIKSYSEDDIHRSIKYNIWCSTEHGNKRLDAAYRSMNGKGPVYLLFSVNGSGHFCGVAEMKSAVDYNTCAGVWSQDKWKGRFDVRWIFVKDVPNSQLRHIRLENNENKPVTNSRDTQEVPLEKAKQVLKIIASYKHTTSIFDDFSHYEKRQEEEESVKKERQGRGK

T2: PURA (human, UniProt Q00577 2-322)
T2 construct: also called NP_005850.1
T2 sequence (looked up): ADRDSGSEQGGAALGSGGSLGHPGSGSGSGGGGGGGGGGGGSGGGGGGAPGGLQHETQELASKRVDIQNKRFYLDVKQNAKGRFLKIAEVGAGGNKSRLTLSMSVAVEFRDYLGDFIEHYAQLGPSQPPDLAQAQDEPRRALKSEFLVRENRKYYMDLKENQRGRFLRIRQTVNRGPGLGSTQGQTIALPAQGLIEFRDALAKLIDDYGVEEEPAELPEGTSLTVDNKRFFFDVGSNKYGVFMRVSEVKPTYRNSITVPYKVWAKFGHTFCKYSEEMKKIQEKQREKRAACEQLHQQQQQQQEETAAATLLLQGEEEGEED

T3: SBSN (human, UniProt Q6UWP8 26-590)
T3 construct: also called NP_00159506.1 (+2)
T3 sequence (looked up): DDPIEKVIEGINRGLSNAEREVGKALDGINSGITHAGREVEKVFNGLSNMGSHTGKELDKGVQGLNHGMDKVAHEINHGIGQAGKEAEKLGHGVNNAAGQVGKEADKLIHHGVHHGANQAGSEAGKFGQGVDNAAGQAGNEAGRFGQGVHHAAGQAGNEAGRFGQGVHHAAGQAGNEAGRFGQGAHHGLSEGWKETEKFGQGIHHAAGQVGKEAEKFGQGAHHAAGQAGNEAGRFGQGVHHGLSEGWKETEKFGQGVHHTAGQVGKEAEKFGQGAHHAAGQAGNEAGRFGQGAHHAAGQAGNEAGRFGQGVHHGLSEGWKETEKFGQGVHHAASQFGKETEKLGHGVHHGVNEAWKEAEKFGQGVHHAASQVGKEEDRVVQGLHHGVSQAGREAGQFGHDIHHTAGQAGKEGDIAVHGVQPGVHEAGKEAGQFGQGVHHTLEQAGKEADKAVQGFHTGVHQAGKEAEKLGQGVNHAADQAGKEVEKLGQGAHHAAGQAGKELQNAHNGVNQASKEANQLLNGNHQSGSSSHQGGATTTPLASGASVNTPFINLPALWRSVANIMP


What was measured:
Assay in all cases: co-IP with anti-FLAG, N-FLAG B3GNT2, mass spectrometry
YTHDF2 = molecular target: T1, YTHDF2
LGALS7B = molecular target: T4, LGALS7B (human, UniProt P47929 1-136)
T4 construct: also called NP_001035972.1

CLTC = molecular target: T5, CLTC (human, UniProt Q00610 2-1675, limits assumed)
T5 construct: also called NP_001275582.1 (+2)

PURA = molecular target: T2, PURA
DDX17 = molecular target: T6, DDX17 (human, UniProt Q92841 1-729, limits assumed)
T6 construct: also called NP_001091974.1

TPM2 = molecular target: T7, TPM2 (human, UniProt P07951-2 1-284, limits assumed)
T7 construct: also called NP_001288155.1

ARPC1B = molecular target: T8, ARPC1B (human, UniProt O15143 2-372)
T8 construct: also called NP_005711.1

SBSN = molecular target: T3, SBSN

Binder	co-IP mass spectrometry count (YTHDF2)	co-IP mass spectrometry count (LGALS7B)	co-IP/MS count, N-term FLAG (CLTC)	co-IP/MS count, N-term FLAG (PURA)	co-IP/MS count, N-term FLAG (DDX17)	co-IP/MS count, N-term FLAG (TPM2)	co-IP/MS count, N-term FLAG (ARPC1B)	co-IP/MS count, N-term FLAG (SBSN)
N-terminal FLAG tagged B3GNT2 (enzyme, human, UniProt Q9NY97 1-397, looked up, FLAG-tagged ORF overexpressed in cells; pulled down from lysate with mouse anti-FLAG; also called N-FLAG B3GNT2; N-term FLAG; not shown: N-terminal FLAG tag) MSVGRRRIKLLGILMMANVFIYFIMEVSKSSSQEKNGKGEVIIPKEKFWKISTPPEAYWNREQEKLNRQYNPILSMLTNQTGEAGRLSNISHLNYCEPDLRVTSVVTGFNNLPDRFKDFLLYLRCRNYSLLIDQPDKCAKKPFLLLAIKSLTPHFARRQAIRESWGQESNAGNQTVVRVFLLGQTPPEDNHPDLSDMLKFESEKHQDILMWNYRDTFFNLSLKEVLFLRWVSTSCPDTEFVFKGDDDVFVNTHHILNYLNSLSKTKAKDLFIGDVIHNAGPHRDKKLKYYIPEVVYSGLYPPYAGGGGFLYSGHLALRLYHITDQVHLYPIDDVYTGMCLQKLGLVPEKHKGFRTFDIEEKNKNNICSYVDLMLVHSRKPQEMIDIWSQLQSAHLKC	5	7	–	–	–	–	–	–
N-terminal FLAG tagged B3GNT2 (enzyme, human, UniProt Q9NY97 1-397, looked up, FLAG-tagged ORF overexpressed in A375 cells; pulled down from the lysate with mouse anti-FLAG; also called N-FLAG B3GNT2; N-term FLAG; not shown: N-terminal FLAG tag) MSVGRRRIKLLGILMMANVFIYFIMEVSKSSSQEKNGKGEVIIPKEKFWKISTPPEAYWNREQEKLNRQYNPILSMLTNQTGEAGRLSNISHLNYCEPDLRVTSVVTGFNNLPDRFKDFLLYLRCRNYSLLIDQPDKCAKKPFLLLAIKSLTPHFARRQAIRESWGQESNAGNQTVVRVFLLGQTPPEDNHPDLSDMLKFESEKHQDILMWNYRDTFFNLSLKEVLFLRWVSTSCPDTEFVFKGDDDVFVNTHHILNYLNSLSKTKAKDLFIGDVIHNAGPHRDKKLKYYIPEVVYSGLYPPYAGGGGFLYSGHLALRLYHITDQVHLYPIDDVYTGMCLQKLGLVPEKHKGFRTFDIEEKNKNNICSYVDLMLVHSRKPQEMIDIWSQLQSAHLKC	–	–	6	0	23	0	0	27
